Measured values taken from patent CN116041496A.

Target: H7N9亚型禽流感病毒血凝素(HA)，野生型病毒上 (H7N9亚型禽流感病毒)
Assay: cell-based or functional assay

B1: H7N9-NeuAb (antibody, V domains shown)
VH: QVQLQQPRAELVMPGASVRMSCQASGYTFTDFWIHWVKQRPGQGLEWIGAIDTSDSYTTYNQNFRGKASLTVDESSSTAYMQLSSLTSEDSAVYYCARLDDGFYNYAMDYWGQGTSVTVSS
VL: NIMMTQSPSSLAVSAGEKVTLNCKSSQSVLNSSNQKNYLAWYQQRPGQSPKLLIYWASTREAGVPDRFTGSGSGTDFTLTISSVKAEDLAVYYCHQYLSSYTFGGGTKLKIK
HI 终点浓度: 1.5 µg/mL
HI效价: 512
中和 终点浓度: 0.15 µg/mL
中和效价: 5120
